One block for each binder: values may come before it.
Assays:
[1] = molecular target: T1, human CTLA4 on cells (CHO-K1/hCTLA4; HEK293/hCTLA4; 293F-hCTLA4) (human, UniProt P16410 36-223); experiment: FACS, CHO-K1/hCTLA4 cells (Test 2)
T1 construct: whole, on cells

[2] = molecular target: T1, human CTLA4 on cells (CHO-K1/hCTLA4; …); experiment: FACS, HEK293/hCTLA4 cells
[3] = molecular target: T2, human PD-L1 on cells (CHO-K1/hPDL1; MDA-MB-231) (human, UniProt Q9NZQ7 19-290); experiment: FACS, CHO-K1/hPDL1 cells (Experiment 2)
T2 construct: whole, on cells

[4] = molecular target: T2, human PD-L1 on cells (CHO-K1/hPDL1; …); experiment: competition FACS: biotinylated PD-1 to CHO-K1/hPDL1 cells (Experiment 2)
[5] = molecular target: T3, human 4-1BB (tumor necrosis factor receptor superfamily member 9) (human, UniProt Q07011 24-255); experiment: flow cytometry (FACS) on CHO-K1/hu 4-1BB cells
T3 construct: whole, on cells; also called hu 4-1BB; CD137

[6] = molecular target: T4, human PD-L1 (programmed death ligand 1) (human, UniProt Q9NZQ7 19-290); experiment: flow cytometry (FACS) on CHO-K1/hPDL1 cells, Experiment 1
T4 construct: whole, on cells; also called hPDL1; CD274

cynomolgus monkey BCMA = molecular target: T5, cynomolgus monkey BCMA (cynomolgus monkey, UniProt A0A2K5UD97 1-183); experiment: FACS on HEK293T/cyno BCMA cells
T5 construct: whole, on cells; also called cyno BCMA

human BCMA [7] = molecular target: T6, human BCMA (human, UniProt Q02223 1-184); experiment: FACS on NCI-H929 cells
T6 construct: whole, on cells; also called hBCMA; TNFRSF17
T6 sequence (looked up): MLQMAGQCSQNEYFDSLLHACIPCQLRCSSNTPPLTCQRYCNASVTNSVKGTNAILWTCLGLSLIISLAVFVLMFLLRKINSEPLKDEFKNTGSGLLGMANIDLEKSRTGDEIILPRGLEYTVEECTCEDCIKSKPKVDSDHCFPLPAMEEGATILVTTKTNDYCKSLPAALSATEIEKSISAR

human BCMA [8] = molecular target: T6, human BCMA; experiment: FACS on HEK293T/hBCMA cells, Experiment 3
[9] = molecular target: T2, human PD-L1 on cells (CHO-K1/hPDL1; …); experiment: FACS, CHO-K1/hPDL1 cells (Experiment 1)
[10] = molecular target: T2, human PD-L1 on cells (CHO-K1/hPDL1; …); experiment: competition FACS: biotinylated PD-1 to CHO-K1/hPDL1 cells (Experiment 1)
[11] = molecular target: T7, human PD-L1-His protein (ACRO Biosystems, #PD1-H5229) (human, UniProt Q9NZQ7 19-238); experiment: ELISA, coated hPD-L1-His
T7 construct: extracellular domain; bought; also called hPDL1-His; human PD-L1 extracellular domain recombinant protein

[12] = molecular target: T8, biotinylated human BCMA-Fc, Avitag recombinant protein (ACRO Biosystems, #BC7-H82F0) (human, UniProt Q02223 1-54, biotinylated); experiment: BLI (Octet Red96e), biotinylated BCMA-Fc on SA sensor, antibody in solution, 1:1 global fit
T8 construct: extracellular domain; Bought protein; also called human BCMA protein; recombinant human BCMA-ECD-Fc; not shown: Fc of the bought fusion protein; Avitag
T8 sequence (looked up): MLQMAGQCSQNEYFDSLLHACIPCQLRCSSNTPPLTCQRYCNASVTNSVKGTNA

human BCMA [13] = molecular target: T9, human BCMA (human, UniProt Q02223 1-184); experiment: flow cytometry, NCI-H929 cells
T9 construct: whole, on cells; the cell line is named under assay; also called TNFRSF17; CD269
T9 sequence (looked up): T6 sequence (looked up)

T2 sequence (Q9NZQ7 19-290): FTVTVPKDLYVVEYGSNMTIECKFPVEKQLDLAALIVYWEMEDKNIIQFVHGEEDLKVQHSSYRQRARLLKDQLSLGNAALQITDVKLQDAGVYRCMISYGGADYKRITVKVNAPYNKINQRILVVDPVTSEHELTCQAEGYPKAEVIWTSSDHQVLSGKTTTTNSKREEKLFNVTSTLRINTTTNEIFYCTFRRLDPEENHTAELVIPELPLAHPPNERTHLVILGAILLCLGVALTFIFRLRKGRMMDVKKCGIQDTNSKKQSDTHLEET
T4 sequence (Q9NZQ7 19-290): as above
T3 sequence (Q07011 24-255): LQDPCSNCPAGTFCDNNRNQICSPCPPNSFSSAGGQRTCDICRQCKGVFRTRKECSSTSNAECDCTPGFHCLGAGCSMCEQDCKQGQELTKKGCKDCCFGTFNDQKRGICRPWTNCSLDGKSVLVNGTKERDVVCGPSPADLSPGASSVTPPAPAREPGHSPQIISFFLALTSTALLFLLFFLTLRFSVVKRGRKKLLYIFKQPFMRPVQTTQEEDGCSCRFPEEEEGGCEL
T1 sequence (P16410 36-223): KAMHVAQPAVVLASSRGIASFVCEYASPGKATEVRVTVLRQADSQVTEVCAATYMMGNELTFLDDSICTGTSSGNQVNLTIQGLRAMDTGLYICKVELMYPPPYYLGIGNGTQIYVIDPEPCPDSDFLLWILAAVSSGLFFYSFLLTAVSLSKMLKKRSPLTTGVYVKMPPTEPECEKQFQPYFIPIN
T7 sequence (Q9NZQ7 19-238): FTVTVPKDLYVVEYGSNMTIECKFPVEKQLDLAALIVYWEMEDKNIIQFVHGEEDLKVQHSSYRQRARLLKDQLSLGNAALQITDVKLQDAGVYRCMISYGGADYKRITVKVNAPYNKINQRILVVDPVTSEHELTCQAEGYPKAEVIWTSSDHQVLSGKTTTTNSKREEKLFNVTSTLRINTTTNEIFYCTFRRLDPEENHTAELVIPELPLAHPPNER
T5 sequence (A0A2K5UD97 entry or part of it): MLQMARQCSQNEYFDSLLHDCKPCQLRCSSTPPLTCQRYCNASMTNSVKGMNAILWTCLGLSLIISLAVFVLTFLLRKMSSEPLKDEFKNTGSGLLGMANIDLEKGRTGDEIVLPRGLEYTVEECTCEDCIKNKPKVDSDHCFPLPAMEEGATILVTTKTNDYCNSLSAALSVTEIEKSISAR

B1: PR000403 (bispecific antibody, human IgG1, kappa, L234A L235A)
chain 1: EVQLVESGGGLVQPGGSLRLSCAASGFTFSSYWMSWVRQAPGKGLEWVANIKQEGSEKYYVDSVKGRFTISRDNAKNSLYLQMNSLRAEDTAVYYCARDRAVAGAFDIWGQGTMVTVSSASTKGPSVFPLAPSSKSTSGGTAALGCLVKDYFPEPVTVSWNSGALTSGVHTFPAVLQSSGLYSLSSVVTVPSSSLGTQTYICNVNHKPSNTKVDKKVEPKSC
chain 2: DIQMTQSPSTLSASVGDRVTVTCRASQSIYIWLAWYQQKPGKAPNLLIYKASSLETGVPSRFSGSGSGTEFTLTISSLQPDDFATYYCQQYYGSSRTFGQGTKVEIKRTVAAPSVFIFPPSDEQLKSGTASVVCLLNNFYPREAKVQWKVDNALQSGNSQESVTEQDSKDSTYSLSSTLTLSKADYEKHKVYACEVTHQGLSSPVTKSFNRGECEVQLVESGGGLIQPGGSLRLSCAVSGFTVSKNYMSWVRQAPGKGLEWVSVVYSGGSKTYADSVKGRFTISRDNSKNTLYLQMNSLRAEDTAVYYCARAVPHSPSSFDIWGQGTMVTVSSEPKSCDKTHTCPPCPAPEAAGGPSVFLFPPKPKDTLMISRTPEVTCVVVDVSHEDPEVKFNWYVDGVEVHNAKTKPREEQYNSTYRVVSVLTVLHQDWLNGKEYKCKVSNKALGAPIEKTISKAKGQPREPQVYTLPPSREEMTKNQVSLTCLVKGFYPSDIAVEWESNGQPENNYKTTPPVLDSDGSFFLYSKLTVDKSRWQQGNVFSCSVMHEALHNHYTQKSLSLSPGK
notes: PD-L1×CTLA4, structure 1 Fab(CL)-VH-Fc
EC50 [1]: 20.5 nM
Maximum MFI [1]: 343 MFI
EC50 [2]: 16.3 nM
Maximum MFI [2]: 1410 MFI
EC50 [3]: 0.73 nM
Maximum MFI [3]: 8090 MFI
IC50 [4]: 0.42 nM
Maximum inhibition rate (%) [4]: 81.4%

B2: PR000701, PD-L1×4-1BB bispecific antibody molecule of FIT-Ig structure (bispecific antibody, human IgG4 S228P, kappa)
chain 1: not shown
chain 2: B1 chain 1
chain 3: not shown
notes: FIT-Ig; Fab A of PR000265 (PD-L1), Fab B of PR000197 (4-1BB) close to Fc; no linker; human IgG4
EC50 [5]: 10.2 nM
Maximum MFI [5]: 1340 MFI
EC50 [6]: 1.72 nM
Maximum MFI [6]: 1710 MFI

B4: PR003551, PD-L1×4-1BB bispecific antibody molecule of IgG-VH tetravalent symmetric structure (bispecific antibody)
light: DIQMTQSPSTLSASVGDRVTVTCRASQSIYIWLAWYQQKPGKAPNLLIYKASSLETGVPSRFSGSGSGTEFTLTISSLQPDDFATYYCQQYYGSSRTFGQGTKVEIKRTVAAPSVFIFPPSDEQLKSGTASVVCLLNNFYPREAKVQWKVDNALQSGNSQESVTEQDSKDSTYSLSSTLTLSKADYEKHKVYACEVTHQGLSSPVTKSFNRGEC
heavy: EVQLVESGGGLVQPGGSLRLSCAASGFTFSSYWMSWVRQAPGKGLEWVANIKQEGSEKYYVDSVKGRFTISRDNAKNSLYLQMNSLRAEDTAVYYCARDRAVAGAFDIWGQGTMVTVSSASTKGPSVFPLAPSSKSTSGGTAALGCLVKDYFPEPVTVSWNSGALTSGVHTFPAVLQSSGLYSLSSVVTVPSSSLGTQTYICNVNHKPSNTKVDKKVEPKSCDKTHTCPPCPAPEAAGGPSVFLFPPKPKDTLMISRTPEVTCVVVDVSHEDPEVKFNWYVDGVEVHNAKTKPREEQYNSTYRVVSVLTVLHQDWLNGKEYKCKVSNKALGAPIEKTISKAKGQPREPQVYTLPPSREEMTKNQVSLTCLVKGFYPSDIAVEWESNGQPENNYKTTPPVLDSDGSFFLYSKLTVDKSRWQQGNVFSCSVMHEALHNHYTQKSLSLSPGEPKSSDKTHTPPPPPRTEVQLLESGGGLVQPGGSLRLSCAASGFIFSNFAMTWVRQPPEKGLKWVSSINGSGFNTYYTDSVKGRFTISRDNSRNTLYLQMNRLTAEDTAVYFCAKEGSSETDDHYYNVDVWGQGTTVTVSS
notes: Structure 5; IgG PR000265, VH of PR001836 at C-terminus of heavy chain; linker H1_15-RT; human IgG1 (L234A, L235A, P329G)
EC50 [5]: 3.15 nM
Maximum MFI [5]: 1570 MFI
EC50 [6]: 1.29 nM
Maximum MFI [6]: 2150 MFI

B7: PR000940, anti-BCMA HCAb antibody, clone 1005P10H8 (antibody, human IgG1, V domains shown)
VH: EVQLLESGGGLVQPGGSLRLSCAASGFTFSSYAMIWVRQAPGKGLEWVSGISESGGSTYYADSVKGRFTISRDNSKNTLYLQMNSLRAEDTAVYFCVKDLDDILTGYYKDYWGQGTLVTVSS
notes: Heavy-chain-only antibody (HCAb), human IgG1 Fc, no light chain
Kd [12]: 0.152 nM
koff [12]: 6.09e-05 s⁻¹
kon [12]: 401000 M⁻¹ s⁻¹
EC50 (human BCMA [13]): 1.85 nM
Maximum MFI (human BCMA [13]): 91000

Other lines, results leading:

EC50 [1]: 26.9 nM
Maximum MFI [1]: 339 MFI
EC50 [2]: 37.2 nM
Maximum MFI [2]: 1620 MFI
EC50 [3]: 0.78 nM
Maximum MFI [3]: 8100 MFI
IC50 [4]: 0.6 nM
Maximum inhibition rate (%) [4]: 81.1%
B3: PR000404 (bispecific antibody, human IgG1, kappa)
chain 1: B1 chain 1
chain 2: not shown
notes: PD-L1×CTLA4, structure 1

Maximum MFI (cynomolgus monkey BCMA): 115000
EC50 (human BCMA [7]): 1.23 nM
Maximum MFI (human BCMA [7]): 15600
EC50 (human BCMA [8]): 0.188 nM
Maximum MFI (human BCMA [8]): 99300
B5: PR003178 (bispecific antibody, human IgG1, lambda, L234A L235A)
light: QAVVTQEPSLTVSPGGTVTLTCRSSTGAVTTSNYANWVQQKPGQAPRGLIGGTNKRAPWTPARFSGSLLGDKAALTLLGAQPEDEAEYFCALWYSNLWVFGGGTKLTVLGQPKAAPSVTLFPPSSEELQANKATLVCLISDFYPGAVTVAWKADSSPVKAGVETTTPSKQSNNKYAASSYLSLTPEQWKSHRSYSCQVTHEGSTVEKTVAPTECS
heavy: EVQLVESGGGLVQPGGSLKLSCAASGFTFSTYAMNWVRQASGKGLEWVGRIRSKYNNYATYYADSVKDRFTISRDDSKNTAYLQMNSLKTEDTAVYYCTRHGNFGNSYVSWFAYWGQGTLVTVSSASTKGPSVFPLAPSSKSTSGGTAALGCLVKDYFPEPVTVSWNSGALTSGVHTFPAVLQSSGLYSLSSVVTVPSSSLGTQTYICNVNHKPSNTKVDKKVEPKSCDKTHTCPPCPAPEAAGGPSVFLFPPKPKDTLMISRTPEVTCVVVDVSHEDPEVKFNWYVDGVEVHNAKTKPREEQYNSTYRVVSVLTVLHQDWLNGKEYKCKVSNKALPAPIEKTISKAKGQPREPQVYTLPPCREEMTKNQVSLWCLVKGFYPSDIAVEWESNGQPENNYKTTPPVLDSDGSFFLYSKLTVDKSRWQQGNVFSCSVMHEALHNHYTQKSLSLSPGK
chain: EVQLVETGGGLIQPGGSLRLSCAASGFTVSDNYMTWVRQAPGKGLEWVSVIFSGGNTYYADSVKGRFTISRDNAKNTLYLQMNSLRAEDTALYYCARRNYDDTRGTDVFDIWGQGTMVTVSSGGGGSGGGGSGGGGSEVQLVETGGGLIQPGGSLRLSCAASGFTVSDNYMTWVRQAPGKGLEWVSVIFSGGNTYYADSVKGRFTISRDNAKNTLYLQMNSLRAEDTALYYCARRNYDDTRGTDVFDIWGQGTMVTVSSASEPKSSDKTHTCPPCPAPEAAGGPSVFLFPPKPKDTLMISRTPEVTCVVVDVSHEDPEVKFNWYVDGVEVHNAKTKPREEQYNSTYRVVSVLTVLHQDWLNGKEYKCKVSNKALPAPIEKTISKAKGQPREPQVCTLPPSREEMTKNQVSLSCAVKGFYPSDIAVEWESNGQPENNYKTTPPVLDSDGSFFLVSKLTVDKSRWQQGNVFSCSVMHEALHNHYTQKSLSLSPGK

EC50 [9]: 0.747 nM
Maximum MFI [9]: 22700 MFI
IC50 [10]: 0.725 nM
Maximum inhibition rate (%) [10]: 96.8%
EC50 [11]: 0.146 nM
Maximum OD450 [11]: 3.45 OD450
B6: PR000070, anti-PD-L1 91G3H5H3, hIgG1(N297A) (antibody, V domains shown)
VH: EVQLVESGGGLVQPGGSLRLSCAASGFTFSSYWMSWVRQAPGKGLEWVANIKQDGSEKYYVDSVKGRFTISRDNAKNSLYLQMNSLRAEDTAVYYCARDRAVAGAFDIWGQGTMVTVSS
VL: DIQMTQSPSTLSASVGDRVTVTCRASQSIYIWLAWYQQKPGKAPNLLIYKASSLETGVPSRFSGSGSGTEFTLTISSLQPDDFATYYCQQYYGSSRTFGQGTKVEIKR

Source: patent US20230322953A1 (HARBOUR BIOMED SHANGHAI, published 2023)
